Data reported in PMC9126151.

Biological target: non-translating 70S ribosome (E. coli) (UniProt P0AG44)
Test: FRET or BRET

| Substance | Kd |
| --- | --- |
| methionine aminopeptidase MAP(H79A), TMR-labelled (from UniProt P0AE18 1-264) (enzyme) | 5.4 µM |
| peptide deformylase PDF(E133A), TMR-labelled (enzyme) | 7.3 µM |
